Target: ST-pro-factor D-His, P00746
Sequence (P00746 whole entry, looked up): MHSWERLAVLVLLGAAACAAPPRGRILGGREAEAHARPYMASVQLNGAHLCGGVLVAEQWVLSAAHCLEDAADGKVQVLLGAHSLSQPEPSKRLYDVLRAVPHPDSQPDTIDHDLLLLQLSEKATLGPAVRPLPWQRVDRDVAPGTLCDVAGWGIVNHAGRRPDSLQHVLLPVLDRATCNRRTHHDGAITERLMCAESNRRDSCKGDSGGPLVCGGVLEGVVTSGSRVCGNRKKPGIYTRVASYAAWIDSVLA

Protein	cleavage of pro-factor D (Western blot)
recombinant full-length human MASP-3 (protein) HTVELNNMFGQIQSPGYPDSYPSDSEVTWNITVPDGFRIKLYFMHFNLESSYLCEYDYVKVETEDQVLATFCGRETTDTEQTPGQEVVLSPGSFMSITFRSDFSNEERFTGFDAHYMAVDVDECKEREDEELSCDHYCHNYIGGYYCSCRFGYILHTDNRTCRVECSDNLFTQRTGVITSPDFPNPYPKSSECLYTIELEEGFMVNLQFEDIFDIEDHPEVPCPYDYIKIKVGPKVLGPFCGEKAPEPISTQSHSVLILFHSDNSGENRGWRLSYRAAGNECPELQPPVHGKIEPSQAKYFFKDQVLVSCDTGYKVLKDNVEMDTFQIECLKDGTWSNKIPTCKIVDCRAPGELEHGLITFSTRNNLTTYKSEIKYSCQEPYYKMLNNNTGIYTCSAQGVWMNKVLGRSLPTCLPECGQPSRSLPSLVKRIIGGRNAEPGLFPWQALIVVEDTSRVPNDKWFGSGALLSASWILTAAHVLRSQRRDTTVIPVSKEHVTVYLGLHDVRDKSGAVNSSAARVVLHPDFNIQNYNHDIALVQLQEPVPLGPHVMPVCLPRLEPEGPAPHMLGLVAGWGISNPNVTVDEIISSGTRTLSDVLQYVKLPVVPHAECKTSYESRSGNYSVTENMFCAGYYEGGKDTCLGDSGGAFVIFDDLSQRWVVQGLVSWGGPEECGSKQVYGVYTKVSNYVDWVWEQMGLPQSVVEPQVER	only full length MASP-3 (lane 2) and the MASP-1 CCP1-CCP2-SP) fragment (lane 5) cleaved ST-pro-factor D-His6
recombinant human MASP-1 (CCP1-CCP2-SP) fragment, active (protein) GNECPELQPPVHGKIEPSQAKYFFKDQVLVSCDTGYKVLKDNVEMDTFQIECLKDGTWSNKIPTCKIVDCRAPGELEHGLITFSTRNNLTTYKSEIKYSCQEPYYKMLNNNTGIYTCSAQGVWMNKVLGRSLPTCLPVCGLPKFSRKLMARIFNGRPAQKGTTPWIAMLSHLNGQPFCGGSLLGSSWIVTAAHCLHQSLDPKDPTLRDSDLLSPSDFKIILGKHWRLRSDENEQHLGVKHTTLHPKYDPNTFENDVALVELLESPVLNAFVMPICLPEGPQQEGAMVIVSGWGKQFLQRFPETLMEIEIPIVDHSTCQKAYAPLKKKVTRDMICAGEKEGGKDACSGDSGGPMVTLNRERGQWYLVGTVSWGDDCGKKDRYGVYSYIHHNKDWIQRVTGVRN	only full length MASP-3 (lane 2) and the MASP-1 CCP1-CCP2-SP) fragment (lane 5) cleaved ST-pro-factor D-His6

Source: patent US20200270125
